Measurements as given in publication PMC3531487, “An Allele of an Ancestral Transcription Factor Dependent on a Horizontally Acquired Gene Product” (PLoS Genetics, 2012).
Numbering of substitutions follows the chain as printed.

B1: phosphorylated PmrA (G211) protein from S. enterica serovar Typhimurium (natural protein)
chain: MKILIVEDDTLLLQGLILAAQTEGYACDGVSTARAAEHSLESGHYSLMVLDLGLPDEDGLHFLTRIRQKKYTLPVLILTARDTLNDRITGLDVGADDYLVKPFALEELHARIRALLRRHNNQGESELTVGNLTLNIGRHQAWRDGQELTLTPKEYALLSRLMLKAGSPVHREILYNDIYNWDNEPSTNTLEVHIHNLRDKVGKSRIRTVRGFGYMLVATEES
modifications: phosphorylated (PmrA-P; phospho-Asp, residue number not given)
notes: PmrA, response regulator of the PmrA/PmrB two-component system, S. enterica serovar Typhimurium 14028s; glycine at position 211; In gel filtration a mixture of monomer and dimer; probably the whole 222-residue protein; also called PmrA-P; PmrA-H6
B2: phosphorylated PmrA (E211) protein from S. enterica serovar Paratyphi B (natural protein)
chain: B1 chain with G211E
modifications: phosphorylated (PmrA-P; phospho-Asp, residue number not given)
notes: PmrA, response regulator of the PmrA/PmrB two-component system, natural allele of S. enterica serovar Paratyphi B (SPV) SARA46; differs from the S. typhimurium PmrA by a single amino acid, glutamate instead of glycine at position 211; also called PmrA-H6

Biological target: the molecule itself
Experiment: SEC; analytical gel filtration; PmrA (50 µM) phosphorylated with pGEX-PmrBc T156R beads, 100 µl applied individually to Superdex 200 10/300 GL at 4°C in 1× TBS/1 mM MgCl2/1 mM DTT/10% glycerol, 0.5 ml/min, A280; monomer to dimer

| Protein | Dimer: Monomer (ratio of peak heights, A280) | stoichiometry N |
| --- | --- | --- |
| B1 | 0.29 | 2 |
| B2 | 0.11 | 2 |
